{
  "source": "patent US20250000946A1",
  "binders": {"B1": {"name": "W3XX115-T3U0.E44-1.uIgG4V322 (Fc fusion)", "chain": "APTSSSTKKTQLQLEHLLLDLQMILNGINNYKNPKLTRMLTAKFAMPKKATELKHLQCLEEELKPLEEVLNGAQSKNFHLRPRDLISNINVIVLELKGSETTFMCEYADETATIVEFLNRWITFCQSIISTLTESKYGPPCPPCPAPEAAGGPSVFLFPPKPKDTLMISRTPEVTCVVVDVSQEDPEVQFNWYVDGVEVHNAKTKPREEQFNSTYRVVSVLTVLHQDWLNGKEYKCKVSNKGLPSSIEKTISKAKGQPREPQVYTLPPCQEEMTKNQVSLWCLVKGFYPSDIAVEWESNGQPENNYKTTPPVLDSDGSFFLYSRLTVDKSRWQEGNVFSCSVMHEALHNHYTQKSLSLSLG", "heavy": "EIQLQQSGPELVKPGASVKVSCKASGYSFTDYNMYWVKQSHGESLEWIGYIDPYNGGTRYNQKFKGKATLTVDKSSSTAFMHLNSLTSEDSAVYYCARNGHWDGAWFAYWGQGTLVTVSAASTKGPSVFPLAPCSRSTSESTAALGCLVKDYFPEPVTVSWNSGALTSGVHTFPAVLQSSGLYSLSSVVTVPSSSLGTKTYTCNVDHKPSNTKVDKRVESKYGPPCPPCPAPEAAGGPSVFLFPPKPKDTLMISRTPEVTCVVVDVSQEDPEVQFNWYVDGVEVHNAKTKPREEQFNSTYRVVSVLTVLHQDWLNGKEYKCKVSNKGLPSSIEKTISKAKGQPREPQVCTLPPSQEEMTKNQVSLSCAVKGFYPSDIAVEWESNGQPENNYKTTPPVLDSDGSFFLVSRLTVDKSRWQEGNVFSCSVMHEALHNHYTQKSLSLSLG", "light": "DIQMNQSPSSLSASLGDTITITCHASQNINVWLSWYQQKPGNIPKLLIYKASNLHTGVPSRFSGSRSGTGFTLTISSLQPEDIATYYCHQGQSYPFTFGSGTKLEIKRTVAAPSVFIFPPSDEQLKSGTASVVCLLNNFYPREAKVQWKVDNALQSGNSQESVTEQDSKDSTYSLSSTLTLSKADYEKHKVYACEVTHQGLSSPVTKSFNRGEC"}, "B2": {"name": "W3XX115-T2U0.E44-31.uIgG4V322 (Fc fusion)", "chain": "APTSSSTKKTQLQLEHLLLDLQMILNGINNYKNPKLTRMLTVKFYMPKKATELKHLQCLEEELKPLEEVLNLAQSKNFHLRPRDLISNINVIVLELKGSETTFMCEYADETATIVEFLNRWITFCQSILESKYGPPCPPCPAPEAAGGPSVFLFPPKPKDTLMISRTPEVTCVVVDVSQEDPEVQFNWYVDGVEVHNAKTKPREEQFNSTYRVVSVLTVLHQDWLNGKEYKCKVSNKGLPSSIEKTISKAKGQPREPQVYTLPPCQEEMTKNQVSLWCLVKGFYPSDIAVEWESNGQPENNYKTTPPVLDSDGSFFLYSRLTVDKSRWQEGNVFSCSVMHEALHNHYTQKSLSLSLG", "heavy": "B1 heavy", "light": "B1 light"}, "B3": {"name": "W3XX115-T2U0.E44-32.uIgG4V322 (Fc fusion)", "chain": "B2 chain with V42I", "heavy": "B1 heavy", "light": "B1 light"}},
  "target": "Human IL-2Rα/β/γ complex (high affinity IL-2 receptor) (human) (UniProt P01589)",
  "sequence (P01589 22-272, chain 1 of 3)": "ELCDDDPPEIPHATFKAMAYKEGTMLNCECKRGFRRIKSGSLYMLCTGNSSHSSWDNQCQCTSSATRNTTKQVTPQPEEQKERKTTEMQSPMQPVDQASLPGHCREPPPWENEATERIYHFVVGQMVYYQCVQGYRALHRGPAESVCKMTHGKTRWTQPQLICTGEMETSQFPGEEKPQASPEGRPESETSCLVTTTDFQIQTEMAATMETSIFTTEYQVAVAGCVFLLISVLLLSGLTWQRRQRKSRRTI",
  "sequence (P14784 27-551, chain 2 of 3, further chain)": "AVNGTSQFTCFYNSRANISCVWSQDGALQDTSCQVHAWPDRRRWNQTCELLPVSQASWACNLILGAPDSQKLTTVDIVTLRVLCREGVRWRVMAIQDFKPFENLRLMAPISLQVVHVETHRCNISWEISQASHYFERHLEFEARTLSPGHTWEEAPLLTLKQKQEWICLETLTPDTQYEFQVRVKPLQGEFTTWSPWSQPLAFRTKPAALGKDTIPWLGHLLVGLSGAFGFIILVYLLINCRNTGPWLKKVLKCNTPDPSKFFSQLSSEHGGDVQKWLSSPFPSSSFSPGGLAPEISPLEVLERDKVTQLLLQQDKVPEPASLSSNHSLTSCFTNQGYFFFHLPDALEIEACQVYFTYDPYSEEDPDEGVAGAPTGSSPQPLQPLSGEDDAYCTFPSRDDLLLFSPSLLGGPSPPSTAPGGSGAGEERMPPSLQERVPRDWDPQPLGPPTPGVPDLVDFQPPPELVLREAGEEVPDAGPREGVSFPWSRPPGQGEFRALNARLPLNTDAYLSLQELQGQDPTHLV",
  "sequence (P31785 23-369, chain 3 of 3, further chain)": "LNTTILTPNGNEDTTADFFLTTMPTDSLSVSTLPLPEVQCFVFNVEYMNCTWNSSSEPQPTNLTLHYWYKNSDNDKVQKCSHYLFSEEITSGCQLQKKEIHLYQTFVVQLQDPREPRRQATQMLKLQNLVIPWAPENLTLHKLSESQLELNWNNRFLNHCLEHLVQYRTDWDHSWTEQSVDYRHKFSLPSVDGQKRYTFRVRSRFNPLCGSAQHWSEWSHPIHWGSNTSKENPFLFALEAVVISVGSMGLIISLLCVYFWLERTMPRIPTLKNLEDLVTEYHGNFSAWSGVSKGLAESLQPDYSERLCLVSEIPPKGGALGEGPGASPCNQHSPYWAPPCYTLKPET",
  "experiment": "cell-based or functional assay",
  "note": "Changes are numbered by the printed parent chain.",
  "data": [
    {"binder": "B1", "values": [
      {"measurement": "Human Treg Potency EC50 (STAT5 phosphorylation)", "value": 7.78, "unit": "nM"},
      {"measurement": "Human Treg Potency reduction", "value": 5560, "unit": "fold"}
    ]},
    {"binder": "B2", "values": [
      {"measurement": "Human Treg Potency EC50 (STAT5 phosphorylation)", "value": 48.8, "unit": "nM"},
      {"measurement": "Human Treg Potency reduction", "value": 34900, "unit": "fold"}
    ]},
    {"binder": "B3", "values": [
      {"measurement": "Human Treg Potency EC50 (STAT5 phosphorylation)", "value": 40.9, "unit": "nM"},
      {"measurement": "Human Treg Potency reduction", "value": 29200, "unit": "fold"}
    ]}
  ]
}
